Assay results reported in the supplement of paper PMC6757056.
± gives the standard deviation of the averaged measurements.

B1: library; a variant is named by its letters at N, in order (parent)
chain: GCUGUCACCGGUGUAUUACCCUAGUGGUCGACCGGUCUGAUGAGUCUNNNNNNAGACGAAACAGC

Assays:
[1] = variants of: B1; assay: FACS-Seq fitted mean relative fluorescence mCherry/BFP without ligand (log10 relative fluorescence); ligand: hypoxanthine (xanthine aptamer); higher = higher reporter protein expression; conditions: HEK293T, ligand present: no
Outline: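 HEK293T libraries were lentivirally transduced with an mCherry reporter carrying the ribozyme switch and an EF1α-BFP marker, enriched, and incubated for 48 h with or without ligand before sorting into 6 bins by mCherry/BFP. Genomic DNA from each bin was PCR-amplified, barcoded and sequenced on MiSeq. Fluorescence is the fitted normal mean of the bin counts. The fit used log10(mCherry/BFP), and means were scaled to five spiked-in control ribozymes.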

[2] = variants of: B1; assay: normalized RNA/DNA level with ligand (relative to sTRSVctl = 100) (log10 (% of sTRSVctl)); ligand: hypoxanthine (xanthine aptamer); higher = less ribozyme self-cleavage, higher mRNA level; conditions: ligand concentration (+) RNA-Seq: 5 mM, HEK293T, reporter: mCherry (pCS4076), ligand present: yes
Method: (§1)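 Hammerhead (sTRSV) ribozyme switch libraries with a ligand aptamer grafted on stem I and a randomized N4-6 loop II, cloned into the 3' UTR of mCherry and transiently transfected into HEK293T cells; RNA-Seq 72 h post transfection with ligand added 1 h before transfection; RNA read count / plasmid DNA read count normalized to the non-cleaving sTRSVctl (x100), log10; sequences with >100 DNA reads. FACS-Seq: lentiviral library sorted into 6 bins after 48 h ligand, log-normal fit mean of mCherry/BFP scaled to controls. Printed sequences are partial switch sequences.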

[3] = variants of: B1; assay: normalized RNA/DNA level without ligand (relative to sTRSVctl = 100) (log10 (% of sTRSVctl)); ligand: hypoxanthine (xanthine aptamer); higher = less ribozyme self-cleavage, higher mRNA level; conditions: HEK293T, reporter: mCherry (pCS4076), ligand present: no
Method: as §1

[4] = variants of: B1; assay: FACS-Seq fitted mean relative fluorescence mCherry/BFP with ligand (log10 relative fluorescence); ligand: hypoxanthine (xanthine aptamer); ligand concentration (+) FACS-Seq: 5 mM; higher = higher reporter protein expression; conditions: HEK293T, ligand present: yes
Method: as §1

| Variant | FACS-Seq fitted mean (log10) [1] | normalized RNA/DNA level with ligand (log10) [2] | normalized RNA/DNA level without ligand (log10) [3] | FACS-Seq fitted mean (log10) [4] |
| --- | --- | --- | --- | --- |
| ACGGAA | 0.072 ± 0.016 | 1.891 ± 0.013 | 1.45 ± 0.034 | 0.327 ± 0.04 |
| AUAUAG | 0.389 ± 0.046 | 1.83 ± 0.03 | 1.54 ± 0.057 | 0.611 ± 0.076 |
| CUUGAU | -0.553 ± 0.022 | 1.94 ± 0.031 | 1.74 ± 0.011 | -0.303 ± 0.012 |
| UGGCAG | 0.155 ± 0.013 | 1.91 ± 0.045 | 1.69 ± 0.045 | 0.563 ± 0.052 |
| UCCCUG | 0.429 ± 0.01 | 1.87 ± 0.076 | 1.41 ± 0.0038 | 0.587 ± 0.0069 |
| AUAGCA | 0.241 ± 0.047 | 1.88 ± 0.033 | 1.78 ± 0.023 | 0.455 ± 0.093 |
| CAUUUA | -0.0161 ± 0.022 | 1.98 ± 0.036 | 1.77 ± 0.034 | 0.532 ± 0.019 |
| CAAGGU | 0.232 ± 0.021 | 1.883 ± 0.015 | 1.78 ± 0.029 | 0.388 ± 0.027 |
| AUUGAG | 0.25 ± 0.005 | 1.82 ± 0.062 | 1.37 ± 0.029 | 0.476 ± 0.0067 |
| CUUUCA | 0.608 ± 0.077 | 1.918 ± 0.0052 | 1.89 ± 0.041 | 0.565 ± 0.017 |
| AACUGC | 0.74 ± 0.033 | 1.91 ± 0.053 | 1.87 ± 0.025 | 0.697 ± 0.048 |
| GAGCCA | -0.0202 ± 0.12 | 1.93 ± 0.066 | 1.76 ± 0.018 | 0.234 ± 0.1 |
| AUACCG | 0.00532 ± 0.0097 | 1.84 ± 0.095 | 1.47 ± 0.035 | 0.282 ± 0.082 |
| GCUCAA | 0.9407 ± 0.005 | 1.92 ± 0.041 | 1.71 ± 0.076 | 0.495 ± 0.11 |
| UCUUUA | 0.261 ± 0.0068 | 1.958 ± 0.004 | 1.9 ± 0.085 | 0.327 ± 0.02 |
| AUAUGU | 0.416 ± 0.0064 | 1.886 ± 0.0057 | 1.68 ± 0.054 | 0.511 ± 0.015 |
| UGUUAU | -0.225 ± 0.19 | 1.89 ± 0.0069 | 1.817 ± 0.0095 | -0.287 ± 0.069 |
| GCAGCA | 0.363 ± 0.034 | 1.983 ± 0.0069 | 1.827 ± 0.016 | 0.663 ± 0.015 |
| AUUGGA | 0.196 ± 0.12 | 1.944 ± 0.0073 | 1.647 ± 0.013 | 0.374 ± 0.042 |
| AAGGAG | 0.245 ± 0.003 | 1.62 ± 0.068 | 1.12 ± 0.047 | 0.589 ± 0.11 |
| CAUUGA | 0.221 ± 0.12 | 1.912 ± 0.0057 | 1.82 ± 0.053 | 0.32 ± 0.0063 |
| AAUGAG | 0.0392 ± 0.012 | 1.81 ± 0.039 | 1.3 ± 0.022 | 0.472 ± 0.044 |
| AUUGUG | 0.0887 ± 0.00064 | 1.8 ± 0.023 | 1.39 ± 0.034 | 0.469 ± 0.1 |
| CUCUGC | -0.384 ± 0.044 | 1.892 ± 0.0033 | 1.882 ± 0.0062 | -0.335 ± 0.067 |

| Variant | FACS-Seq fitted mean (log10) [1] | normalized RNA/DNA level with ligand (log10) [2] | normalized RNA/DNA level without ligand (log10) [3] | FACS-Seq fitted mean (log10) [4] |
| --- | --- | --- | --- | --- |
| GAGAGC | 0.164 ± 0.036 | 1.8 ± 0.033 | 1.27 ± 0.072 | 0.494 ± 0.031 |
| CCCUAA | 0.693 ± 0.022 | 1.94 ± 0.022 | 1.907 ± 0.011 | 0.837 ± 0.06 |
| CACUUC | -0.745 ± 0.014 | 1.884 ± 0.015 | 1.93 ± 0.066 | -0.484 ± 0.033 |
| CCCAAG | 0.293 ± 0.059 | 1.91 ± 0.033 | 1.6 ± 0.079 | 0.439 ± 0.018 |
| GAGAUA | 0.345 ± 0.013 | 1.869 ± 0.015 | 1.65 ± 0.0036 | 0.362 ± 0.087 |
| CUGCGA | -0.182 ± 0.027 | 1.98 ± 0.052 | 1.822 ± 0.01 | -0.114 ± 0.022 |
| AUUAAG | 0.351 ± 0.019 | 1.86 ± 0.028 | 1.48 ± 0.056 | 0.65 ± 0.069 |
| AAGGUG | -0.0635 ± 0.037 | 1.666 ± 0.0026 | 1.22 ± 0.024 | 0.37 ± 0.077 |
| UAACGG | 0.07847 ± 0.00013 | 1.82 ± 0.083 | 1.376 ± 0.0076 | 0.473 ± 0.081 |
| ACACUG | 0.4461 ± 0.0036 | 1.9 ± 0.021 | 1.42 ± 0.097 | 0.795 ± 0.052 |
| GUACAG | 0.688 ± 0.084 | 1.87 ± 0.071 | 1.45 ± 0.07 | 0.818 ± 0.08 |
| CCGAGA | 0.353 ± 0.076 | 1.87 ± 0.042 | 1.51 ± 0.046 | 0.648 ± 0.061 |
| ACUCCG | 0.262 ± 0.039 | 1.895 ± 0.0092 | 1.44 ± 0.026 | 0.615 ± 0.02 |
| AACCCG | 0.577 ± 0.077 | 1.84 ± 0.088 | 1.378 ± 0.013 | 0.751 ± 0.043 |
| AACCCA | 0.217 ± 0.063 | 1.92 ± 0.022 | 1.85 ± 0.042 | 0.245 ± 0.0026 |
| UUCGCA | 0.4682 ± 0.0031 | 1.95 ± 0.051 | 1.86 ± 0.067 | 0.512 ± 0.038 |
| AGCUAC | -0.583 ± 0.06 | 1.96 ± 0.058 | 1.778 ± 0.0088 | -0.175 ± 0.051 |
| GUUAUG | 0.223 ± 0.011 | 1.87 ± 0.039 | 1.46 ± 0.015 | 0.509 ± 0.01 |
| UAGAUG | -0.00441 ± 0.085 | 1.9 ± 0.081 | 1.615 ± 0.0023 | 0.344 ± 0.03 |
| GUAAGA | 0.291 ± 0.0051 | 1.89 ± 0.0055 | 1.73 ± 0.01 | 0.214 ± 0.029 |
| UGUGUG | 0.266 ± 0.078 | 1.93 ± 0.058 | 1.676 ± 0.0071 | 0.333 ± 0.086 |
| AGACUC | 0.486 ± 0.012 | 1.944 ± 0.016 | 1.94 ± 0.034 | 0.646 ± 0.01 |
| GAAGAG | -0.121 ± 0.02 | 1.79 ± 0.022 | 1.27 ± 0.032 | 0.521 ± 0.037 |
| GGACGG | 0.346 ± 0.049 | 1.81 ± 0.035 | 1.42 ± 0.016 | 0.584 ± 0.054 |

| Variant | FACS-Seq fitted mean (log10) [1] | normalized RNA/DNA level with ligand (log10) [2] | normalized RNA/DNA level without ligand (log10) [3] | FACS-Seq fitted mean (log10) [4] |
| --- | --- | --- | --- | --- |
| AAAGGA | 0.0795 ± 0.041 | 1.9 ± 0.031 | 1.58 ± 0.037 | -0.105 ± 0.2 |
| UGUCCU | 0.984 ± 0.042 | 1.95 ± 0.091 | 1.93 ± 0.039 | 0.87 ± 0.054 |
| GGGUUA | 0.574 ± 0.047 | 1.99 ± 0.018 | 1.845 ± 0.013 | 0.558 ± 0.01 |
| AGGUCG | 0.151 ± 0.023 | 1.861 ± 0.0041 | 1.53 ± 0.092 | 0.463 ± 0.049 |
| GAGGGC | -0.0173 ± 0.076 | 1.87 ± 0.056 | 1.5 ± 0.021 | 0.367 ± 0.041 |
| AAGUCU | -0.27 ± 0.07 | 1.91 ± 0.046 | 1.84 ± 0.053 | -0.266 ± 0.014 |
| AAGUGU | 0.111 ± 0.029 | 1.89 ± 0.046 | 1.571 ± 0.015 | 0.229 ± 0.011 |
| UUAAAU | 0.322 ± 0.05 | 1.959 ± 0.016 | 1.83 ± 0.024 | 0.322 ± 0.013 |
| UCGUGA | 0.414 ± 0.036 | 1.84 ± 0.022 | 1.27 ± 0.039 | 0.578 ± 0.16 |
| AGGACU | 0.894 ± 0.099 | 1.94 ± 0.058 | 1.802 ± 0.0094 | 0.734 ± 0.031 |
| GCCUUA | -0.138 ± 0.047 | 1.97 ± 0.0091 | 1.92 ± 0.026 | -0.197 ± 0.092 |
| AAAGUG | 0.148 ± 0.035 | 1.81 ± 0.034 | 1.31 ± 0.043 | 0.47 ± 0.012 |
| AAAGUA | 0.554 ± 0.029 | 1.9 ± 0.023 | 1.73 ± 0.053 | 0.61 ± 0.032 |
| GUUGUG | 0.225 ± 0.066 | 1.83 ± 0.042 | 1.39 ± 0.028 | 0.406 ± 0.14 |
| GGUGAU | 0.445 ± 0.047 | 1.93 ± 0.039 | 1.763 ± 0.012 | 0.5584 ± 0.0013 |
| AGUCUG | 0.186 ± 0.024 | 1.9 ± 0.066 | 1.54 ± 0.029 | 0.414 ± 0.053 |
| GGCGAU | 0.679 ± 0.071 | 1.97 ± 0.062 | 1.9 ± 0.063 | 0.587 ± 0.0063 |
| GACGAG | 0.184 ± 0.028 | 1.76 ± 0.056 | 1.31 ± 0.017 | 0.597 ± 0.026 |
| AUCAGG | 0.386 ± 0.072 | 1.87 ± 0.01 | 1.48 ± 0.061 | 0.617 ± 0.048 |
| GCCGCG | 0.226 ± 0.012 | 1.94 ± 0.045 | 1.521 ± 0.0049 | 0.576 ± 0.024 |
| AGAGAA | 0.479 ± 0.04 | 1.882 ± 0.0051 | 1.69 ± 0.047 | 0.467 ± 0.0095 |
| GCAAUA | 0.126 ± 0.036 | 1.941 ± 0.016 | 1.87 ± 0.026 | 0.466 ± 0.071 |
| GCAAUC | 0.498 ± 0.03 | 1.98 ± 0.058 | 1.77 ± 0.0096 | 0.531 ± 0.046 |
